Experimental data from the supplement of paper PMC9112550, “Optimization of the antimicrobial peptide Bac7 by deep mutational scanning” (BMC Biology, 2022).

Test system: Escherichia coli TOP10
Assay: shrunken log2 fold change of peptide-encoding DNA abundance (4.5 h post-induction vs induction); higher = less antimicrobial activity (less host growth inhibition)
Details: time post-induction: 4.5 h; library: site-saturation at positions 5, 18, 19, 20
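Further: peptides expressed intracellularly from a pBAD plasmid library in pooled LB shake-flask culture, induced with 0.3% L-arabinose, DNA abundance read by NGS, three biological replicates, DESeq2 with apeglm shrinkage.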

Row | Sequence | shrunken log2 fold change
1 | RRIRMRPPRLPRPRPRPSQAPRP | 0.689
2 | RRIRMRPPRLPRPRPRPSRWPRP | 1
3 | RRIRMRPPRLPRPRPRPSRYPRP | -0.173
4 | RRIRMRPPRLPRPRPRPSSKPRP | 1.87
5 | RRIRMRPPRLPRPRPRPSSWPRP | 0.477
6 | RRIRMRPPRLPRPRPRPSTLPRP | -0.239
7 | RRIRMRPPRLPRPRPRPSWQPRP | 0.305
8 | RRIRMRPPRLPRPRPRPSWSPRP | 0.154
9 | RRIRMRPPRLPRPRPRPSYVPRP | -0.331
10 | RRIRMRPPRLPRPRPRPTDMPRP | 0.0845
11 | RRIRMRPPRLPRPRPRPTEGPRP | 0.269
12 | RRIRMRPPRLPRPRPRPTEVPRP | 0.598
13 | RRIRMRPPRLPRPRPRPTFQPRP | 0.428
14 | RRIRMRPPRLPRPRPRPTFWPRP | 0.916
15 | RRIRMRPPRLPRPRPRPTGNPRP | 0.496
16 | RRIRMRPPRLPRPRPRPTIMPRP | 0.176
17 | RRIRMRPPRLPRPRPRPTLSPRP | 0.377
18 | RRIRMRPPRLPRPRPRPTMEPRP | 0.868
19 | RRIRMRPPRLPRPRPRPTMKPRP | 0.482
20 | RRIRMRPPRLPRPRPRPTMTPRP | 2.3
21 | RRIRMRPPRLPRPRPRPTNKPRP | 0.111
22 | RRIRMRPPRLPRPRPRPTPMPRP | 0.981
23 | RRIRMRPPRLPRPRPRPTQPPRP | 0.176
24 | RRIRMRPPRLPRPRPRPTRGPRP | 1.57
25 | RRIRMRPPRLPRPRPRPTRNPRP | 0.212

Row | Sequence | shrunken log2 fold change
26 | RRIRMRPPRLPRPRPRPTSVPRP | 0.172
27 | RRIRMRPPRLPRPRPRPTTLPRP | 0.34
28 | RRIRMRPPRLPRPRPRPTTSPRP | 0.499
29 | RRIRMRPPRLPRPRPRPTVPPRP | 0.388
30 | RRIRMRPPRLPRPRPRPTYDPRP | 0.473
31 | RRIRMRPPRLPRPRPRPTYYPRP | -0.554
32 | RRIRMRPPRLPRPRPRPVAWPRP | 0.213
33 | RRIRMRPPRLPRPRPRPVCDPRP | 0.367
34 | RRIRMRPPRLPRPRPRPVCWPRP | 0.833
35 | RRIRMRPPRLPRPRPRPVEKPRP | 1.01
36 | RRIRMRPPRLPRPRPRPVEQPRP | 0.0366
37 | RRIRMRPPRLPRPRPRPVETPRP | -0.00114
38 | RRIRMRPPRLPRPRPRPVFAPRP | 0.378
39 | RRIRMRPPRLPRPRPRPVIFPRP | -0.237
40 | RRIRMRPPRLPRPRPRPVKYPRP | 0.0631
41 | RRIRMRPPRLPRPRPRPVMVPRP | 0.0724
42 | RRIRMRPPRLPRPRPRPVNCPRP | 0.181
43 | RRIRMRPPRLPRPRPRPVNGPRP | -0.0577
44 | RRIRMRPPRLPRPRPRPVNLPRP | -0.0198
45 | RRIRMRPPRLPRPRPRPVPVPRP | 0.364
46 | RRIRMRPPRLPRPRPRPVQEPRP | 0.051
47 | RRIRMRPPRLPRPRPRPVRQPRP | 0.332
48 | RRIRMRPPRLPRPRPRPVRVPRP | 1.74
49 | RRIRMRPPRLPRPRPRPVSWPRP | 0.553
50 | RRIRMRPPRLPRPRPRPVTCPRP | 0.0862

Row | Sequence | shrunken log2 fold change
51 | RRIRMRPPRLPRPRPRPVTNPRP | 0.0903
52 | RRIRMRPPRLPRPRPRPVVPPRP | -0.107
53 | RRIRMRPPRLPRPRPRPVVYPRP | -0.0377
54 | RRIRMRPPRLPRPRPRPVYDPRP | -0.399
55 | RRIRMRPPRLPRPRPRPVYQPRP | -0.372
56 | RRIRMRPPRLPRPRPRPWALPRP | 0.0536
57 | RRIRMRPPRLPRPRPRPWASPRP | 0.0142
58 | RRIRMRPPRLPRPRPRPWDEPRP | 0.391
59 | RRIRMRPPRLPRPRPRPWDMPRP | 0.00416
60 | RRIRMRPPRLPRPRPRPWEPPRP | 0.127
61 | RRIRMRPPRLPRPRPRPWFIPRP | -0.183
62 | RRIRMRPPRLPRPRPRPWGAPRP | 0.698
63 | RRIRMRPPRLPRPRPRPWGEPRP | 0.232
64 | RRIRMRPPRLPRPRPRPWHEPRP | -0.126
65 | RRIRMRPPRLPRPRPRPWHFPRP | 0.201
66 | RRIRMRPPRLPRPRPRPWHHPRP | -0.0514
67 | RRIRMRPPRLPRPRPRPWIDPRP | -0.146
68 | RRIRMRPPRLPRPRPRPWITPRP | -0.00122
69 | RRIRMRPPRLPRPRPRPWKFPRP | 0.0673
70 | RRIRMRPPRLPRPRPRPWKVPRP | -0.0135
71 | RRIRMRPPRLPRPRPRPWLHPRP | -0.493
72 | RRIRMRPPRLPRPRPRPWLSPRP | 0.0302
73 | RRIRMRPPRLPRPRPRPWMCPRP | -0.01
74 | RRIRMRPPRLPRPRPRPWNNPRP | -0.964
75 | RRIRMRPPRLPRPRPRPWPPPRP | 1.09

Row | Sequence | shrunken log2 fold change
76 | RRIRMRPPRLPRPRPRPWPWPRP | -0.00171
77 | RRIRMRPPRLPRPRPRPWQVPRP | -0.0506
78 | RRIRMRPPRLPRPRPRPWSDPRP | -0.131
79 | RRIRMRPPRLPRPRPRPWSLPRP | -0.385
80 | RRIRMRPPRLPRPRPRPWVCPRP | 0.154
81 | RRIRMRPPRLPRPRPRPYALPRP | 0.0157
82 | RRIRMRPPRLPRPRPRPYANPRP | -0.139
83 | RRIRMRPPRLPRPRPRPYCHPRP | -0.545
84 | RRIRMRPPRLPRPRPRPYDLPRP | -0.242
85 | RRIRMRPPRLPRPRPRPYDQPRP | 0.102
86 | RRIRMRPPRLPRPRPRPYERPRP | -0.0671
87 | RRIRMRPPRLPRPRPRPYHWPRP | -0.101
88 | RRIRMRPPRLPRPRPRPYISPRP | -0.353
89 | RRIRMRPPRLPRPRPRPYKGPRP | -0.046
90 | RRIRMRPPRLPRPRPRPYKSPRP | -0.215
91 | RRIRMRPPRLPRPRPRPYMIPRP | -0.00479
92 | RRIRMRPPRLPRPRPRPYPTPRP | -0.114
93 | RRIRMRPPRLPRPRPRPYQKPRP | -0.0182
94 | RRIRMRPPRLPRPRPRPYQNPRP | 0.0826
95 | RRIRMRPPRLPRPRPRPYQPPRP | 0.0396
96 | RRIRMRPPRLPRPRPRPYRWPRP | -0.00788
97 | RRIRMRPPRLPRPRPRPYSDPRP | -0.329
98 | RRIRMRPPRLPRPRPRPYSEPRP | 0.171
99 | RRIRMRPPRLPRPRPRPYSSPRP | -0.115
100 | RRIRMRPPRLPRPRPRPYTAPRP | 0.147

Row | Sequence | shrunken log2 fold change
101 | RRIRMRPPRLPRPRPRPYTTPRP | -0.335
102 | RRIRMRPPRLPRPRPRPYTWPRP | -0.101
103 | RRIRMRPPRLPRPRPRPYVPPRP | -0.584
104 | RRIRMRPPRLPRPRPRPYYPPRP | -0.159
105 | RRIRNRPPRLPRPRPRPACCPRP | 0.236
106 | RRIRNRPPRLPRPRPRPAHHPRP | -0.0626
107 | RRIRNRPPRLPRPRPRPAIAPRP | 0.0215
108 | RRIRNRPPRLPRPRPRPAIKPRP | -0.383
109 | RRIRNRPPRLPRPRPRPAKEPRP | 0.0446
110 | RRIRNRPPRLPRPRPRPAKNPRP | 0.0221
111 | RRIRNRPPRLPRPRPRPALKPRP | 0.108
112 | RRIRNRPPRLPRPRPRPALYPRP | -0.125
113 | RRIRNRPPRLPRPRPRPAMHPRP | -0.273
114 | RRIRNRPPRLPRPRPRPANTPRP | -0.242
115 | RRIRNRPPRLPRPRPRPAPIPRP | 0.169
116 | RRIRNRPPRLPRPRPRPAPMPRP | 0.237
117 | RRIRNRPPRLPRPRPRPAPPPRP | 0.584
118 | RRIRNRPPRLPRPRPRPAQCPRP | -0.0739
119 | RRIRNRPPRLPRPRPRPAQFPRP | 0.0855
120 | RRIRNRPPRLPRPRPRPAQLPRP | -0.207
121 | RRIRNRPPRLPRPRPRPAQWPRP | 0.525
122 | RRIRNRPPRLPRPRPRPARNPRP | -0.0209
123 | RRIRNRPPRLPRPRPRPATHPRP | 0.224
124 | RRIRNRPPRLPRPRPRPATMPRP | -0.1
125 | RRIRNRPPRLPRPRPRPAVDPRP | 0.0455

Row | Sequence | shrunken log2 fold change
126 | RRIRNRPPRLPRPRPRPAVEPRP | -0.0887
127 | RRIRNRPPRLPRPRPRPAVVPRP | 0.251
128 | RRIRNRPPRLPRPRPRPAWKPRP | 0.122
129 | RRIRNRPPRLPRPRPRPAYLPRP | -0.284
130 | RRIRNRPPRLPRPRPRPCCTPRP | 2.47
131 | RRIRNRPPRLPRPRPRPCEEPRP | -0.0104
132 | RRIRNRPPRLPRPRPRPCEMPRP | 0.019
133 | RRIRNRPPRLPRPRPRPCFFPRP | -0.489
134 | RRIRNRPPRLPRPRPRPCGDPRP | 0.0293
135 | RRIRNRPPRLPRPRPRPCGFPRP | -0.0155
136 | RRIRNRPPRLPRPRPRPCGPPRP | -0.0549
137 | RRIRNRPPRLPRPRPRPCHDPRP | -0.0458
138 | RRIRNRPPRLPRPRPRPCHLPRP | -0.146
139 | RRIRNRPPRLPRPRPRPCISPRP | -0.802
140 | RRIRNRPPRLPRPRPRPCKHPRP | -0.344
141 | RRIRNRPPRLPRPRPRPCMVPRP | -0.69
142 | RRIRNRPPRLPRPRPRPCMYPRP | -0.0592
143 | RRIRNRPPRLPRPRPRPCNEPRP | -0.0138
144 | RRIRNRPPRLPRPRPRPCNLPRP | -0.134
145 | RRIRNRPPRLPRPRPRPCQCPRP | -0.00992
146 | RRIRNRPPRLPRPRPRPCSKPRP | -0.0508
147 | RRIRNRPPRLPRPRPRPCWRPRP | -0.174
148 | RRIRNRPPRLPRPRPRPCYLPRP | -1.19
149 | RRIRNRPPRLPRPRPRPDALPRP | 0.0233
150 | RRIRNRPPRLPRPRPRPDGAPRP | 0.0931
